Laboratory results reported in patent US20130225506A1 (POLYPHOR, published 2013).
Square brackets hold non-standard residues; d marks the D form. Primed or numbered codes have the meaning given here. dPro(cis-4-NH2) = N[C@H]1CN[C@@H](C(=O)O)C1; dPro(4S-NH2) = N[C@@H]1CN[C@@H](C(=O)O)C1; 1Nal = N[C@@H](Cc1cccc2ccccc12)C(=O)O; 2Nal = N[C@@H](Cc1ccc2ccccc2c1)C(=O)O; Pro(3S-OH) = O=C(O)[C@H]1NCC[C@@H]1O; dCit = NC(=O)NCCC[C@@H](N)C(=O)O; Tic = O=C(O)[C@@H]1Cc2ccccc2CN1; Agb = N=C(N)NCC[C@H](N)C(=O)O; Agp = N=C(N)NC[C@H](N)C(=O)O; Orn = NCCC[C@H](N)C(=O)O; dPip′ = not defined here; Dab = NCC[C@H](N)C(=O)O

Target: chemokine receptor CXCR7 (UniProt P25106 1-362, limits assumed)
Sequence (P25106 whole entry): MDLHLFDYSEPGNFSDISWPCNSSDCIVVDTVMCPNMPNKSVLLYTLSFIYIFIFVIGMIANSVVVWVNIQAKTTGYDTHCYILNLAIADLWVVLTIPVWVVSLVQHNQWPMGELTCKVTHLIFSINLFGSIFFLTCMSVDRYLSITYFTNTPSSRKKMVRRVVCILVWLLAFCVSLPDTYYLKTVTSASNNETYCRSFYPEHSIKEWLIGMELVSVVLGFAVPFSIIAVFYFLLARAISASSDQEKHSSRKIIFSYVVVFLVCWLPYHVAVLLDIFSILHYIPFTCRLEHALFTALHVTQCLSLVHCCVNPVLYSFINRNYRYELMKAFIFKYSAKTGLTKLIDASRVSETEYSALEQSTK
Assay: cell-based or functional assay

Binder | β-Arrestin EC50
cyclo(W[dF]WR[dPro(4S-NH2)][Tic]) (SMILES N=C(N)NCCC[C@@H]1NC(=O)[C@H](Cc2c[nH]c3ccccc23)NC(=O)[C@@H](Cc2ccccc2)NC(=O)[C@H](Cc2c[nH]c3ccccc23)NC(=O)[C@@H]2Cc3ccccc3CN2C(=O)[C@H]2C[C@H](N)CN2C1=O) [cyclo(-Trp-^DPhe-Trp-Arg-^DPro((4S)NH2)-Tic-)] | 17.5 nM
cyclo(W[dF]W[Dab][dPro(cis-4-NH2)][Tic]) (SMILES NCC[C@@H]1NC(=O)[C@H](Cc2c[nH]c3ccccc23)NC(=O)[C@@H](Cc2ccccc2)NC(=O)[C@H](Cc2c[nH]c3ccccc23)NC(=O)[C@@H]2Cc3ccccc3CN2C(=O)[C@H]2C[C@@H](N)CN2C1=O) [cyclo(-Trp-^DPhe-Trp-Dab-^DPro((4R)NH2)-Tic-)] | 13.6 nM
cyclo(A[dF]WR[dPro(cis-4-NH2)][Tic]) (SMILES C[C@@H]1NC(=O)[C@@H]2Cc3ccccc3CN2C(=O)[C@H]2C[C@@H](N)CN2C(=O)[C@H](CCCNC(=N)N)NC(=O)[C@H](Cc2c[nH]c3ccccc23)NC(=O)[C@@H](Cc2ccccc2)NC1=O) [cyclo(-Ala-^DPhe-Trp-Arg-^DPro((4R)NH2)-Tic-)] | 322 nM
cyclo(W[dF]WH[dPro(cis-4-NH2)][Tic]) (SMILES N[C@@H]1C[C@@H]2C(=O)N3Cc4ccccc4C[C@H]3C(=O)N[C@@H](Cc3c[nH]c4ccccc34)C(=O)N[C@H](Cc3ccccc3)C(=O)N[C@@H](Cc3c[nH]c4ccccc34)C(=O)N[C@@H](Cc3c[nH]cn3)C(=O)N2C1) [cyclo(-Trp-^DPhe-Trp-His-^DPro((4R)NH2)-Tic-)] | 20.4 nM
cyclo(I[dK]RW[dP]T) (SMILES CC[C@H](C)[C@@H]1NC(=O)[C@H]([C@@H](C)O)NC(=O)[C@H]2CCCN2C(=O)[C@H](Cc2c[nH]c3ccccc23)NC(=O)[C@H](CCCNC(=N)N)NC(=O)[C@@H](CCCCN)NC1=O) [cyclo(-Ile-^DLys-Arg-Trp-^DPro-Thr-)] | 86.7 nM
cyclo(I[dR]R[1Nal][dP]T) (SMILES CC[C@H](C)[C@@H]1NC(=O)[C@H]([C@@H](C)O)NC(=O)[C@H]2CCCN2C(=O)[C@H](Cc2cccc3ccccc23)NC(=O)[C@H](CCCNC(=N)N)NC(=O)[C@@H](CCCNC(=N)N)NC1=O) [cyclo(-Ile-^DArg-Arg-1Nal-^DPro-Thr-)] | 17.9 nM
cyclo(I[dR][Agp]W[dP]T) (SMILES CC[C@H](C)[C@@H]1NC(=O)[C@H]([C@@H](C)O)NC(=O)[C@H]2CCCN2C(=O)[C@H](Cc2c[nH]c3ccccc23)NC(=O)[C@H](CNC(=N)N)NC(=O)[C@@H](CCCNC(=N)N)NC1=O) [cyclo(-Ile-^DArg-Agp-Trp-^DPro-Thr-)] | 90.5 nM
cyclo(I[dR][Agb]W[dP]T) (SMILES CC[C@H](C)[C@@H]1NC(=O)[C@H]([C@@H](C)O)NC(=O)[C@H]2CCCN2C(=O)[C@H](Cc2c[nH]c3ccccc23)NC(=O)[C@H](CCNC(=N)N)NC(=O)[C@@H](CCCNC(=N)N)NC1=O) [cyclo(-Ile-^DArg-Agb-Trp-^DPro-Thr-)] | 22.3 nM
cyclo(I[dR]RW[dP]S) (SMILES CC[C@H](C)[C@@H]1NC(=O)[C@H](CO)NC(=O)[C@H]2CCCN2C(=O)[C@H](Cc2c[nH]c3ccccc23)NC(=O)[C@H](CCCNC(=N)N)NC(=O)[C@@H](CCCNC(=N)N)NC1=O) [cyclo(-Ile-^DArg-Arg-Trp-^DPro-Ser-)] | 12.8 nM
cyclo(W[dR]RW[dP]T) (SMILES C[C@@H](O)[C@@H]1NC(=O)[C@H]2CCCN2C(=O)[C@H](Cc2c[nH]c3ccccc23)NC(=O)[C@H](CCCNC(=N)N)NC(=O)[C@@H](CCCNC(=N)N)NC(=O)[C@H](Cc2c[nH]c3ccccc23)NC1=O) [cyclo(-Trp-^DArg-Arg-Trp-^DPro-Thr-)] | 538 nM
cyclo(I[dR]RI[dP]T) (SMILES CC[C@H](C)[C@@H]1NC(=O)[C@H]([C@@H](C)O)NC(=O)[C@H]2CCCN2C(=O)[C@H]([C@@H](C)CC)NC(=O)[C@H](CCCNC(=N)N)NC(=O)[C@@H](CCCNC(=N)N)NC1=O) [cyclo(-Ile-^DArg-Arg-Ile-^DPro-Thr-)] | 79.7 nM
cyclo(I[dR]R[2Nal][dP]T) (SMILES CC[C@H](C)[C@@H]1NC(=O)[C@H]([C@@H](C)O)NC(=O)[C@H]2CCCN2C(=O)[C@H](Cc2ccc3ccccc3c2)NC(=O)[C@H](CCCNC(=N)N)NC(=O)[C@@H](CCCNC(=N)N)NC1=O) [cyclo(-Ile-^DArg-Arg-2Nal-^DPro-Thr-)] | 0.4 nM
cyclo(T[dR]WR[dP]T) (SMILES C[C@@H](O)[C@@H]1NC(=O)[C@H]([C@@H](C)O)NC(=O)[C@H]2CCCN2C(=O)[C@H](CCCNC(=N)N)NC(=O)[C@H](Cc2c[nH]c3ccccc23)NC(=O)[C@@H](CCCNC(=N)N)NC1=O) [cyclo(-Thr-^DArg-Trp-Arg-^DPro-Thr-)] | 17.2 nM
cyclo(W[dF]W[Orn][dPro(cis-4-NH2)][Tic]) (SMILES NCCC[C@@H]1NC(=O)[C@H](Cc2c[nH]c3ccccc23)NC(=O)[C@@H](Cc2ccccc2)NC(=O)[C@H](Cc2c[nH]c3ccccc23)NC(=O)[C@@H]2Cc3ccccc3CN2C(=O)[C@H]2C[C@@H](N)CN2C1=O) [cyclo(-Trp-^DPhe-Trp-Orn-^DPro((4R)NH2)-Tic-)] | 26.1 nM
cyclo(I[dR]RW[dP][Pro(3S-OH)]) (SMILES CC[C@H](C)[C@@H]1NC(=O)[C@@H]2[C@@H](O)CCN2C(=O)[C@H]2CCCN2C(=O)[C@H](Cc2c[nH]c3ccccc23)NC(=O)[C@H](CCCNC(=N)N)NC(=O)[C@@H](CCCNC(=N)N)NC1=O) [cyclo(-Ile-^DArg-Arg-Trp-^DPro-Pro((3S)OH)-)] | 123 nM
cyclo(W[dF]WK[dPro(cis-4-NH2)][Tic]) (SMILES NCCCC[C@@H]1NC(=O)[C@H](Cc2c[nH]c3ccccc23)NC(=O)[C@@H](Cc2ccccc2)NC(=O)[C@H](Cc2c[nH]c3ccccc23)NC(=O)[C@@H]2Cc3ccccc3CN2C(=O)[C@H]2C[C@@H](N)CN2C1=O) [cyclo(-Trp-^DPhe-Trp-Lys-^DPro((4R)NH2)-Tic-)] | 138 nM
cyclo(I[dR]RW[dP]T) (SMILES CC[C@H](C)[C@@H]1NC(=O)[C@H]([C@@H](C)O)NC(=O)[C@H]2CCCN2C(=O)[C@H](Cc2c[nH]c3ccccc23)NC(=O)[C@H](CCCNC(=N)N)NC(=O)[C@@H](CCCNC(=N)N)NC1=O) [cyclo(-Ile-^DArg-Arg-Trp-^DPro-Thr-)] | 6.7 nM
cyclo(W[dF]WR[dPro(cis-4-NH2)][Tic]) (SMILES N=C(N)NCCC[C@@H]1NC(=O)[C@H](Cc2c[nH]c3ccccc23)NC(=O)[C@@H](Cc2ccccc2)NC(=O)[C@H](Cc2c[nH]c3ccccc23)NC(=O)[C@@H]2Cc3ccccc3CN2C(=O)[C@H]2C[C@@H](N)CN2C1=O) [cyclo(-Trp-^DPhe-Trp-Arg-^DPro((4R)NH2)-Tic-)] | 6.1 nM
cyclo(I[dH]RW[dP]T) (SMILES CC[C@H](C)[C@@H]1NC(=O)[C@H]([C@@H](C)O)NC(=O)[C@H]2CCCN2C(=O)[C@H](Cc2c[nH]c3ccccc23)NC(=O)[C@H](CCCNC(=N)N)NC(=O)[C@@H](Cc2c[nH]cn2)NC1=O) [cyclo(-Ile-^DHis-Arg-Trp-^DPro-Thr-)] | 546 nM
cyclo(I[dR]RY[dP]T) (SMILES CC[C@H](C)[C@@H]1NC(=O)[C@H]([C@@H](C)O)NC(=O)[C@H]2CCCN2C(=O)[C@H](Cc2ccc(O)cc2)NC(=O)[C@H](CCCNC(=N)N)NC(=O)[C@@H](CCCNC(=N)N)NC1=O) [cyclo(-Ile-^DArg-Arg-Tyr-^DPro-Thr-)] | 83.7 nM
cyclo(Y[dF]WR[dPro(cis-4-NH2)][Tic]) (SMILES N=C(N)NCCC[C@@H]1NC(=O)[C@H](Cc2c[nH]c3ccccc23)NC(=O)[C@@H](Cc2ccccc2)NC(=O)[C@H](Cc2ccc(O)cc2)NC(=O)[C@@H]2Cc3ccccc3CN2C(=O)[C@H]2C[C@@H](N)CN2C1=O) [cyclo(-Tyr-^DPhe-Trp-Arg-^DPro((4R)NH2)-Tic-)] | 20.9 nM
cyclo(I[dR]RW[dPip′]T) [cyclo(-Ile-^DArg-Arg-Trp-^DPip-Thr-)] | 0.1 nM
cyclo(I[dR]WR[dP]T) (SMILES CC[C@H](C)[C@@H]1NC(=O)[C@H]([C@@H](C)O)NC(=O)[C@H]2CCCN2C(=O)[C@H](CCCNC(=N)N)NC(=O)[C@H](Cc2c[nH]c3ccccc23)NC(=O)[C@@H](CCCNC(=N)N)NC1=O) [cyclo(-Ile-^DArg-Trp-Arg-^DPro-Thr-)] | 62.5 nM
cyclo(I[dR]KW[dP]T) (SMILES CC[C@H](C)[C@@H]1NC(=O)[C@H]([C@@H](C)O)NC(=O)[C@H]2CCCN2C(=O)[C@H](Cc2c[nH]c3ccccc23)NC(=O)[C@H](CCCCN)NC(=O)[C@@H](CCCNC(=N)N)NC1=O) [cyclo(-Ile-^DArg-Lys-Trp-^DPro-Thr-)] | 78.7 nM
cyclo(I[dCit]RW[dP]T) (SMILES CC[C@H](C)[C@@H]1NC(=O)[C@H]([C@@H](C)O)NC(=O)[C@H]2CCCN2C(=O)[C@H](Cc2c[nH]c3ccccc23)NC(=O)[C@H](CCCNC(=N)N)NC(=O)[C@@H](CCCNC(N)=O)NC1=O) [cyclo(-Ile-^DCit-Arg-Trp-^DPro-Thr-)] | 472 nM
cyclo([1Nal][dR]RW[dP]T) (SMILES C[C@@H](O)[C@@H]1NC(=O)[C@H]2CCCN2C(=O)[C@H](Cc2c[nH]c3ccccc23)NC(=O)[C@H](CCCNC(=N)N)NC(=O)[C@@H](CCCNC(=N)N)NC(=O)[C@H](Cc2cccc3ccccc23)NC1=O) [cyclo(-1Nal-^DArg-Arg-Trp-^DPro-Thr-)] | 28.5 nM
